Series [1] concerns the target T1, C-reactive protein (CRP) (human, UniProt P02741 19-224).
T1 sequence: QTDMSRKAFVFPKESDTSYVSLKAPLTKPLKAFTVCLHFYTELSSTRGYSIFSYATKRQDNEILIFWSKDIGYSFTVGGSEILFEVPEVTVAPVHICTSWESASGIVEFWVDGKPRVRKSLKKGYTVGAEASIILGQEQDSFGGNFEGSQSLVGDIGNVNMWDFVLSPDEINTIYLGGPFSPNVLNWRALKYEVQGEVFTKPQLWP
The series is described as follows: electrochemiluminescence aptasensor; no significant signal change; 0.01 M phosphate buffer (KH2PO4/Na2HPO4) pH 7.4; CRP incubation 80 min; binding temperature not stated. To be noted: protein: recombinant; chain copies: 5.

Series [2] has as its target T2, alpha-fetoprotein (AFP) (UniProt P02771 19-609).
T2 sequence: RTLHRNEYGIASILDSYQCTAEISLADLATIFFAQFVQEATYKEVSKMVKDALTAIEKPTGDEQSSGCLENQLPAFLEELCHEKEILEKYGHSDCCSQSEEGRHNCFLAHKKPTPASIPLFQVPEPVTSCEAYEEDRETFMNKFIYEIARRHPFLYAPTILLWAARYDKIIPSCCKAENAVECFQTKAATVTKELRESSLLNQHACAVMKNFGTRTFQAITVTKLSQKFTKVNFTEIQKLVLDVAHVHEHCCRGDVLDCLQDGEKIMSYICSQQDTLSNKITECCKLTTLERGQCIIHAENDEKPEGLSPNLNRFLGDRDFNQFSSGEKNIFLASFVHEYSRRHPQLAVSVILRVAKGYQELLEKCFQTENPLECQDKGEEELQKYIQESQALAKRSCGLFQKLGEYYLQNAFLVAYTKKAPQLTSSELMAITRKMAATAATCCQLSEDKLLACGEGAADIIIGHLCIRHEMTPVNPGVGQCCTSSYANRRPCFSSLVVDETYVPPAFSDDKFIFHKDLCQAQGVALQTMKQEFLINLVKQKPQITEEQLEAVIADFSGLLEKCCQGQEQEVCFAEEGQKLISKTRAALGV
The series is described as follows: electrochemiluminescence aptasensor; 100 ng/mL AFP; change very minimal vs 10 ng/mL CRP; 0.01 M phosphate buffer (KH2PO4/Na2HPO4) pH 7.4; CRP incubation 80 min; binding temperature not stated. To be noted: protein: commercial.

Series [3] concerns the target cancer antigen 15-3 (CA15-3) (UniProt P15941 24-1097). The series is described as follows: electrochemiluminescence aptasensor; 100 ng/mL CA15-3; change very minimal vs 10 ng/mL CRP; 0.01 M phosphate buffer (KH2PO4/Na2HPO4) pH 7.4; CRP incubation 80 min; binding temperature not stated. To be noted: protein: commercial.
The target of series [4] is T1, C-reactive protein (CRP). The series is described as follows: electrochemiluminescence aptasensor; Ru(bpy)3 2+/TPrA; BSA-blocked; linear 10 pg/mL-1 ug/mL, LOD 7.4 pg/mL; 0.01 M phosphate buffer (KH2PO4/Na2HPO4) pH 7.4; CRP incubation 80 min; binding temperature not stated. To be noted: protein: recombinant; chain copies: 5.

Sequence of cancer antigen 15-3 (CA15-3) (P15941 24-1097): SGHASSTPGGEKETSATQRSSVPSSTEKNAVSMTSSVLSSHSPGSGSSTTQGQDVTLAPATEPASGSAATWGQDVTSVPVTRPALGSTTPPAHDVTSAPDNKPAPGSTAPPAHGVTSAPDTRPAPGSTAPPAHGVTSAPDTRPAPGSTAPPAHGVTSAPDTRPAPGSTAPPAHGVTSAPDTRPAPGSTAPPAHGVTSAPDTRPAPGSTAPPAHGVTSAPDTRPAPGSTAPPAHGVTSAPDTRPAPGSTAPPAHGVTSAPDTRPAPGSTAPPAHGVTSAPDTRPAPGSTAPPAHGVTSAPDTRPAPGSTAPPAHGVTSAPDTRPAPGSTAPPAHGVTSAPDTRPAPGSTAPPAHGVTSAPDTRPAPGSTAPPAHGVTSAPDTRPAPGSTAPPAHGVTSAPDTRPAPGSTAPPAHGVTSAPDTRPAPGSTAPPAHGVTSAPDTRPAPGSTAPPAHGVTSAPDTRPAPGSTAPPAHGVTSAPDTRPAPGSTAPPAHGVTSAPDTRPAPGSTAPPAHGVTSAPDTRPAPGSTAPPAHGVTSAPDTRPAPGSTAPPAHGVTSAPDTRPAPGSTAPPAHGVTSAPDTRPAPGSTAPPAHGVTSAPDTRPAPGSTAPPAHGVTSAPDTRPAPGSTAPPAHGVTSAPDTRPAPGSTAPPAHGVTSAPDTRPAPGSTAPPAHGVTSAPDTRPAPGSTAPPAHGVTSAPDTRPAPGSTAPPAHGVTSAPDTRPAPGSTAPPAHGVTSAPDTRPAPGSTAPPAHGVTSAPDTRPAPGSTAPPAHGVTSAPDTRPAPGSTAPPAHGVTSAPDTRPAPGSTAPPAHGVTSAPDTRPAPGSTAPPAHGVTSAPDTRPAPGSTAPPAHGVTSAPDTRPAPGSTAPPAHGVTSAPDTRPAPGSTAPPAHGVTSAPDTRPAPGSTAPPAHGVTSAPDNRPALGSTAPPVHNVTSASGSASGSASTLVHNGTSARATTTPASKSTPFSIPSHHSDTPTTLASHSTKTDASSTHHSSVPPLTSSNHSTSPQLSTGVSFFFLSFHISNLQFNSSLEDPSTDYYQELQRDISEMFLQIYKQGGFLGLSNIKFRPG

As to ATACCAGCTTATTCAATT (ssDNA, 3'-NH2 (sequence line; text also says 5' amino)) [CEA aptamer], in series [1], the binding result is reported as “no binding”.
Same read-out and setting: in the case of ATTAAAGCTCGCCATCAAATAGCTGC (ssDNA, 5'-NH2) [PSA aptamer] it was “no binding”.
Regarding CGAAGGGGATTCGAGGGGTGATTGCGTGCTCCATTTGGTG (ssDNA, 5'-NH2) [CRP aptamer], the binding result in series [2] was “no binding”; in series [3], “no binding”; in series [4] it was “binds”.
Take GTTGGGCACGTGTTGTCTCTCTGTGTCTCGTGCCCTTCGCTAGGCCCACA (ssDNA, 3'-NH2 (sequence line; text also says 5' amino)) [AFB1 aptamer]: the binding result in series [1] is reported as “no binding”.

The values are drawn from publication PMC10675231, “Electrochemiluminescence Aptasensor with Dual Signal Amplification by Silica Nanochannel-Based Confinement Effect on Nanocatalyst and Efficient Emitter Enrichment for Highly Sensitive Detection of C-R”.
